Measurements from patent US20210163606A1.

Biological target: NRP2 endogenous on U251 glioblastoma cells and on human lymphatic endothelial cells (HLEC) (human) (UniProt O60462)
Test: cell-based or functional assay

NRP2 endogenous on U251 glioblastoma cells and on human lymphatic endothelial cells (HLEC) (human), sequence (O60462 21-931): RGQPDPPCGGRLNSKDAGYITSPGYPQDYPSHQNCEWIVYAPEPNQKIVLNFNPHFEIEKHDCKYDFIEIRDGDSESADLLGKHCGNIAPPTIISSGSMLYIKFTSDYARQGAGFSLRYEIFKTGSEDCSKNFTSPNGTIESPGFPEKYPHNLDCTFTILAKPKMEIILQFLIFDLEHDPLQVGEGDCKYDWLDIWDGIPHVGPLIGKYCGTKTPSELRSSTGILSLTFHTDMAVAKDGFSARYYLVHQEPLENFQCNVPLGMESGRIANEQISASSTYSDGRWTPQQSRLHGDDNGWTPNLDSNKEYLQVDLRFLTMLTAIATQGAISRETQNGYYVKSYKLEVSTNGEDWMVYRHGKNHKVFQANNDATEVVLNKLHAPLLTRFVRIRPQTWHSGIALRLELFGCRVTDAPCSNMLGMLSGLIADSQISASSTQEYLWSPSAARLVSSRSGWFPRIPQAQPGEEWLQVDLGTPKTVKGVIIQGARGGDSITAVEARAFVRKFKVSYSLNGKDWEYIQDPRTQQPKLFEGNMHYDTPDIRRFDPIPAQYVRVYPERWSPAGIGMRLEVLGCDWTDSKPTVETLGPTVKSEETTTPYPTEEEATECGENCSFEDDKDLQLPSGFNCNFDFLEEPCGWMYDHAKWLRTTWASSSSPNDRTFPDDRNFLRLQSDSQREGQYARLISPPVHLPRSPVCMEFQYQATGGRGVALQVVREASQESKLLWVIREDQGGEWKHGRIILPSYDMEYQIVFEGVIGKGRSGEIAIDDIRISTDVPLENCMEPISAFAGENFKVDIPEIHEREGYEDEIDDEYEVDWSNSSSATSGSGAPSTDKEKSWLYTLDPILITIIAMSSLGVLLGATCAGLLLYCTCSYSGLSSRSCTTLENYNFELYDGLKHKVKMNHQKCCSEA

decrease in intracellular phospho-Akt levels in U251 cells: 50%
Substance: Semaphorin 3F (SEMA3F) (from UniProt Q13275 19-779) (ligand)
